These results are taken from article PMC6458996, “Sostdc1: A soluble BMP and Wnt antagonist that is induced by the interaction between myeloma cells and osteoblast lineage cells” (Bone, 2019).

The target of experiment [1] is recombinant murine low density lipoprotein receptor-related protein 6 (LRP6) (mouse) (UniProt O88572). Kind of experiment: BLI; Amine reactive 2nd generation (AR2G) biosensors (ForteBio, BLItz); analyte at multiple concentrations from 0 to 100 ug/ml; global fit to a simple 1:1 Langmuir model; which partner was immobilised is not stated outright (the legend speaks of 100 ug/ml of Sostdc1 binding to rmLRP6, BMP2 and BMP7). For orientation: BLI is a label-free optical method that tracks binding on a fibre tip over time.
recombinant murine low density lipoprotein receptor-related protein 6 (LRP6) (mouse), sequence (O88572 20-1613): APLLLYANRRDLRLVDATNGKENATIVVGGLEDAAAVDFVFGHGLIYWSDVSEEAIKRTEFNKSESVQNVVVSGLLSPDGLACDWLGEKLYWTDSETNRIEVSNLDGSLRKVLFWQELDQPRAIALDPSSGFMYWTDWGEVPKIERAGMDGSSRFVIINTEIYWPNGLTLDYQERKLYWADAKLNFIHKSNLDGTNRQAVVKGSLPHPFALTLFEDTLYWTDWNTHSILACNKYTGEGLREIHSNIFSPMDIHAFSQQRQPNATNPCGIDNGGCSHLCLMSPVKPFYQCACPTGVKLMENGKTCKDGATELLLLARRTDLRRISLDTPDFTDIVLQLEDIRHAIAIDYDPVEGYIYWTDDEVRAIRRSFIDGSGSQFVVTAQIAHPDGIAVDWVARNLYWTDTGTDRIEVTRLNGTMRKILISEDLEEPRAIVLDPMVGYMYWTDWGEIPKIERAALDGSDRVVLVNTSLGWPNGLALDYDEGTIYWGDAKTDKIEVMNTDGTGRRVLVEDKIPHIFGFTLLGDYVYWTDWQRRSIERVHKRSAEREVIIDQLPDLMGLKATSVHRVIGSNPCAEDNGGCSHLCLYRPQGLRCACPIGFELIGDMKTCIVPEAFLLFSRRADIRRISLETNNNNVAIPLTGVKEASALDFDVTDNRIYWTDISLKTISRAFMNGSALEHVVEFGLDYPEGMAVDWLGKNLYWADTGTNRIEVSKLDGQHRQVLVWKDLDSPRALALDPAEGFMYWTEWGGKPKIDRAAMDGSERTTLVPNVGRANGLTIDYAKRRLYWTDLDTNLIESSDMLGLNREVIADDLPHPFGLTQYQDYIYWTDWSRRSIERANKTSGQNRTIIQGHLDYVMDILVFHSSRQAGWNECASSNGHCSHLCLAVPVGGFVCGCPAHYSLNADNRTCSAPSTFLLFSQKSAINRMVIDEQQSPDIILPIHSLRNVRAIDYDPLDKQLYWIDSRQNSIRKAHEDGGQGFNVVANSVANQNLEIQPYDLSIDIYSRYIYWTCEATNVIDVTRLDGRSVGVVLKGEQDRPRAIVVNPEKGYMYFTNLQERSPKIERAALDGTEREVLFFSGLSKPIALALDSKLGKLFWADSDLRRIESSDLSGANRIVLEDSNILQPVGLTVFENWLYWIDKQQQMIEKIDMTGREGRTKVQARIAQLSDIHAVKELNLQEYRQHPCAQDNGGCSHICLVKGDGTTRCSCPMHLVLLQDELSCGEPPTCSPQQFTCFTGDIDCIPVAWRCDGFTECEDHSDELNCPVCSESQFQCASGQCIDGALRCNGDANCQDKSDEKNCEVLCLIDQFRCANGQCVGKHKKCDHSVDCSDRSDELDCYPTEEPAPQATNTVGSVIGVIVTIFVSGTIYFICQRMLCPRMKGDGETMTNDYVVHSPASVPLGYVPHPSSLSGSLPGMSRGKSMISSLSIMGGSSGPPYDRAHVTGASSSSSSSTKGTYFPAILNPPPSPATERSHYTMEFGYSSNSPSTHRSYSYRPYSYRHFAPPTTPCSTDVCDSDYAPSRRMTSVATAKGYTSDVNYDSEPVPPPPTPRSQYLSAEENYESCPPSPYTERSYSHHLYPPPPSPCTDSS

Experiment [2] addresses T1, recombinant murine Sostdc1 (sclerostin domain containing 1) (mouse, UniProt Q9CQN4 24-206).
T1 construct: sclerostin domain containing 1 (Sostdc1), murine recombinant protein; also called recombinant Sostdc1; murine recombinant Sostdc1
T1 sequence (looked up): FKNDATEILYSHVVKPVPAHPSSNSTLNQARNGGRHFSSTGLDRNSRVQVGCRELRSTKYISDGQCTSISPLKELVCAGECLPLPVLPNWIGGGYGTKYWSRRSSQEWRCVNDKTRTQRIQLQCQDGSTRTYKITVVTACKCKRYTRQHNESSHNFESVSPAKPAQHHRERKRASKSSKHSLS
Described as above. Conditions: both partners purified.

“recombinant murine Sostdc1 (sclerostin domain containing 1) (from UniProt Q9CQN4 24-206) (natural protein)”: the Kd – broadly, the constant that tells how readily two partners part at equilibrium – in experiment [1] was determined as 0.85 nM.

B1: bone morphogenetic protein 7 (BMP7) (ligand, UniProt P18075 293-431, looked up)
chain: STGSKQRSQNRSKTPKNQEALRMANVAENSSSDQRQACKKHELYVSFRDLGWQDWIIAPEGYAAYYCEGECAFPLNSYMNATNHAIVQTLVHFINPETVPKPCCAPTQLNAISVLYFDDSSNVILKKYRNMVVRACGCH
notes: BMP7, recombinant protein; also called ligand BMP7 protein
As to B1, the Kd in experiment [2] is below 0.001 nM.

B2: bone morphogenetic protein 2 (BMP2) (ligand, UniProt P12643 283-396, looked up)
chain: QAKHKQRKRLKSSCKRHPLYVDFSDVGWNDWIVAPPGYHAFYCHGECPFPLADHLNSTNHAIVQTLVNSVNSKIPKACCVPTELSAISMLYLDENEKVVLKNYQDMVVEGCGCR
notes: BMP2, recombinant protein; also called BMP2 ligand protein
B2: in experiment [2], the Kd was found to be 9.57 nM.
